Our source for the response values is publication PMC11737852 (2025).

B1: Myc-USP5 [not stated] / Flag-IRF3 [not stated] (parent complex)
chain 1: MAELSEEALLSVLPTIRVPKAGDRVHKDECAFSFDTPESEGGLYICMNTFLGFGKQYVERHFNKTGQRVYLHLRRTRRPKEEDPATGTGDPPRKKPTRLAIGVEGGFDLSEEKFELDEDVKIVILPDYLEIARDGLGGLPDIVRDRVTSAVEALLSADSASRKQEVQAWDGEVRQVSKHAFSLKQLDNPARIPPCGWKCSKCDMRENLWLNLTDGSILCGRRYFDGSGGNNHAVEHYRETGYPLAVKLGTITPDGADVYSYDEDDMVLDPSLAEHLSHFGIDMLKMQKTDKTMTELEIDMNQRIGEWELIQESGVPLKPLFGPGYTGIRNLGNSCYLNSVVQVLFSIPDFQRKYVDKLEKIFQNAPTDPTQDFSTQVAKLGHGLLSGEYSKPVPESGDGERVPEQKEVQDGIAPRMFKALIGKGHPEFSTNRQQDAQEFFLHLINMVERNCRSSENPNEVFRFLVEEKIKCLATEKVKYTQRVDYIMQLPVPMDAALNKEELLEYEEKKRQAEEEKMALPELVRAQVPFSSCLEAYGAPEQVDDFWSTALQAKSVAVKTTRFASFPDYLVIQIKKFTFGLDWVPKKLDVSIEMPEELDISQLRGTGLQPGEEELPDIAPPLVTPDEPKGSLGFYGNEDEDSFCSPHFSSPTSPMLDESVIIQLVEMGFPMDACRKAVYYTGNSGAEAAMNWVMSHMDDPDFANPLILPGSSGPGSTSAAADPPPEDCVTTIVSMGFSRDQALKALRATNNSLERAVDWIFSHIDDLDAEAAMDISEGRSAADSISESVPVGPKVRDGPGKYQLFAFISHMGTSTMCGHYVCHIKKEGRWVIYNDQKVCASEKPPKDLGYIYFYQRVAS
chain 2: MGTPKPRILPWLVSQLDLGQLEGVAWVNKSRTRFRIPWKHGLRQDAQQEDFGIFQAWAEATGAYVPGRDKPDLPTWKRNFRSALNRKEGLRLAEDRSKDPHDPHKIYEFVNSGVGDFSQPDTSPDTNGGGSTSDTQEDILDELLGNMVLAPLPDPGPPSLAVAPEPCPQPLRSPSLDNPTPFPNLGPSENPLKRLLVPGEEWEFEVTAFYRGRQVFQQTISCPEGLRLVGSEVGDRTLPGWPVTLPDPGMSLTDRGVMSYVRHVLSCLGGGLALWRAGQWLWAQRLGHCHTYWAVSEELLPNSGHGPDGEVPKDKEGGVFDLGPFIVDLITFTEGSGRSPRYALWFCVGESWPQDQPWTKRLVMVKVVPTCLRALVEMARVGGASSLENTVDLHISNSHPLSLTSDQYKAYLQDLVEGMDFQGPGES

Variants of B1 are the subject of the assay. The assay is described as follows: in situ PLA; HEK293T cells co-transfected for 24 h, then infected with SeV (0.1 MOI) for 6 h; parent: 12; read off a plot.
Take chain 1 C335A: the response is around 12 complex number/cell.
